In article PMC4909209:

Key:
[1] = target: de-tagged Ls-AChBP (Lymnaea stagnalis acetylcholine binding protein) (Lymnaea stagnalis) (UniProt P58154); experiment: radioligand binding
[2] = target: ubiquitin tagged Ac-AChBP (Aplysia californica acetylcholine binding protein) (Aplysia californica); experiment: radioligand binding

Which results are given for “alpha-conotoxin ImI (from UniProt P50983 5-17) (peptide)”?
Ki [1]: > 10000 nM; Ki [2]: 3 nM

For alpha-conotoxin LsIA (peptide), which Ki [1] is on record?
The Ki was 700 nM.

What about the Ki [2] of the same substance?
Its Ki is 11 nM.
